Measurements from publication doi:10.1101/2024.04.28.591520.

Molecular target: T1, Mycobacterium tuberculosis polyketide synthase 13 (Mycobacterium tuberculosis), I6X8D2
T1 chain: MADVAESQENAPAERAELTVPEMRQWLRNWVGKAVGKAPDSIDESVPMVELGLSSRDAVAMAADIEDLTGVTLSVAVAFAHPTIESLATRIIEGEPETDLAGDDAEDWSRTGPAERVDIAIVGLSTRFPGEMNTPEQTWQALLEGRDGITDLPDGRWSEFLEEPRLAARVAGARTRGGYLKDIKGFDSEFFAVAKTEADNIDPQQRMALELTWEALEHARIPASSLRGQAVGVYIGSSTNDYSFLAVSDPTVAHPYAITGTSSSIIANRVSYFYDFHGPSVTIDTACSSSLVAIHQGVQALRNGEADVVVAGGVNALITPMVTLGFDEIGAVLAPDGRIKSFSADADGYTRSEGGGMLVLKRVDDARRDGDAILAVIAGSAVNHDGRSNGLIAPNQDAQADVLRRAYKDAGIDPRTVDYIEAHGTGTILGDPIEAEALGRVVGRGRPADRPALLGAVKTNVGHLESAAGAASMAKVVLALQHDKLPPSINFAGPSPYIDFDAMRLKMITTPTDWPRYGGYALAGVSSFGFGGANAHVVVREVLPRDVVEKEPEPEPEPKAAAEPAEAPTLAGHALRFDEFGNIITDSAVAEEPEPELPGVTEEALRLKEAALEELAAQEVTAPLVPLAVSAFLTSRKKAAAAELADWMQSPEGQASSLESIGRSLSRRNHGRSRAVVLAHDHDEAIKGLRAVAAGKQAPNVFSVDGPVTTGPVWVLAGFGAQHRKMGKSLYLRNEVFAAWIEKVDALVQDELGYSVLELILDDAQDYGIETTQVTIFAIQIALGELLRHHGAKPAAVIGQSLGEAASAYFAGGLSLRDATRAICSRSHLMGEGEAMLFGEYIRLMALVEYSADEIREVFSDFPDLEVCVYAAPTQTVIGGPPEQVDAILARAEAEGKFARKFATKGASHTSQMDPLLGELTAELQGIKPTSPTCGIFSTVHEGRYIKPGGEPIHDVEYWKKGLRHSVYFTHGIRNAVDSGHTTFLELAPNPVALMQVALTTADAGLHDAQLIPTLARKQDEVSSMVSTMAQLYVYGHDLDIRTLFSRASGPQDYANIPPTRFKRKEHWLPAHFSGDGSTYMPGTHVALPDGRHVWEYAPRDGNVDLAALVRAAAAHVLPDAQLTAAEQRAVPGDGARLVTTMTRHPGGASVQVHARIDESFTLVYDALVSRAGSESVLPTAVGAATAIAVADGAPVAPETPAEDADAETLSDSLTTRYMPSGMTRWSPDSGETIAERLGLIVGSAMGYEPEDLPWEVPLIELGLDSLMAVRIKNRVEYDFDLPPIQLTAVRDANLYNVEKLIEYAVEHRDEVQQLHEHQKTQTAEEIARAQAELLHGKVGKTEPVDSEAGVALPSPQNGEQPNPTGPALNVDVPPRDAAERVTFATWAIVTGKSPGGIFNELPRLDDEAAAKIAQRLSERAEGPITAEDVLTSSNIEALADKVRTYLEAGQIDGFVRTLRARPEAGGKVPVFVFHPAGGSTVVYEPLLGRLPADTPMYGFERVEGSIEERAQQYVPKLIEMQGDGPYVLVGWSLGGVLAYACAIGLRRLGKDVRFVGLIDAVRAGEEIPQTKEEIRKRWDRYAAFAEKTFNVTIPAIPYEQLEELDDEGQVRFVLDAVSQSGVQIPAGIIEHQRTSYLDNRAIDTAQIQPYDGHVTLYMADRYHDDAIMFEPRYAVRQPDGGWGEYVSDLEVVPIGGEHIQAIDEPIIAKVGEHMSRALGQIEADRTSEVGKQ
Assay: AUC
Conditions: remark: other sources report otherwise

B1: Mycobacterium tuberculosis polyketide synthase 13, I6X8D2 1-1733 (enzyme)
chain: MADVAESQENAPAERAELTVPEMRQWLRNWVGKAVGKAPDSIDESVPMVELGLSSRDAVAMAADIEDLTGVTLSVAVAFAHPTIESLATRIIEGEPETDLAGDDAEDWSRTGPAERVDIAIVGLSTRFPGEMNTPEQTWQALLEGRDGITDLPDGRWSEFLEEPRLAARVAGARTRGGYLKDIKGFDSEFFAVAKTEADNIDPQQRMALELTWEALEHARIPASSLRGQAVGVYIGSSTNDYSFLAVSDPTVAHPYAITGTSSSIIANRVSYFYDFHGPSVTIDTACSSSLVAIHQGVQALRNGEADVVVAGGVNALITPMVTLGFDEIGAVLAPDGRIKSFSADADGYTRSEGGGMLVLKRVDDARRDGDAILAVIAGSAVNHDGRSNGLIAPNQDAQADVLRRAYKDAGIDPRTVDYIEAHGTGTILGDPIEAEALGRVVGRGRPADRPALLGAVKTNVGHLESAAGAASMAKVVLALQHDKLPPSINFAGPSPYIDFDAMRLKMITTPTDWPRYGGYALAGVSSFGFGGANAHVVVREVLPRDVVEKEPEPEPEPKAAAEPAEAPTLAGHALRFDEFGNIITDSAVAEEPEPELPGVTEEALRLKEAALEELAAQEVTAPLVPLAVSAFLTSRKKAAAAELADWMQSPEGQASSLESIGRSLSRRNHGRSRAVVLAHDHDEAIKGLRAVAAGKQAPNVFSVDGPVTTGPVWVLAGFGAQHRKMGKSLYLRNEVFAAWIEKVDALVQDELGYSVLELILDDAQDYGIETTQVTIFAIQIALGELLRHHGAKPAAVIGQSLGEAASAYFAGGLSLRDATRAICSRSHLMGEGEAMLFGEYIRLMALVEYSADEIREVFSDFPDLEVCVYAAPTQTVIGGPPEQVDAILARAEAEGKFARKFATKGASHTSQMDPLLGELTAELQGIKPTSPTCGIFSTVHEGRYIKPGGEPIHDVEYWKKGLRHSVYFTHGIRNAVDSGHTTFLELAPNPVALMQVALTTADAGLHDAQLIPTLARKQDEVSSMVSTMAQLYVYGHDLDIRTLFSRASGPQDYANIPPTRFKRKEHWLPAHFSGDGSTYMPGTHVALPDGRHVWEYAPRDGNVDLAALVRAAAAHVLPDAQLTAAEQRAVPGDGARLVTTMTRHPGGASVQVHARIDESFTLVYDALVSRAGSESVLPTAVGAATAIAVADGAPVAPETPAEDADAETLSDSLTTRYMPSGMTRWSPDSGETIAERLGLIVGSAMGYEPEDLPWEVPLIELGLDSLMAVRIKNRVEYDFDLPPIQLTAVRDANLYNVEKLIEYAVEHRDEVQQLHEHQKTQTAEEIARAQAELLHGKVGKTEPVDSEAGVALPSPQNGEQPNPTGPALNVDVPPRDAAERVTFATWAIVTGKSPGGIFNELPRLDDEAAAKIAQRLSERAEGPITAEDVLTSSNIEALADKVRTYLEAGQIDGFVRTLRARPEAGGKVPVFVFHPAGGSTVVYEPLLGRLPADTPMYGFERVEGSIEERAQQYVPKLIEMQGDGPYVLVGWSLGGVLAYACAIGLRRLGKDVRFVGLIDAVRAGEEIPQTKEEIRKRWDRYAAFAEKTFNVTIPAIPYEQLEELDDEGQVRFVLDAVSQSGVQIPAGIIEHQRTSYLDNRAIDTAQIQPYDGHVTLYMADRYHDDAIMFEPRYAVRQPDGGWGEYVSDLEVVPIGGEHIQAIDEPIIAKVGEHMSRALGQIEADRTSEVGKQ
stoichiometry N: 2
